Measured values reported in paper PMC11629607, “Nanobodies against the myelin enzyme CNPase as tools for structural and functional studies” (Journal of Neurochemistry, 2024).
Read-outs that look alike come from different tables or passages of the source.

T1: TOM70-EGFP-CNPase-ALFAtag (Mus musculus (assumed))
T1 construct: 2′,3′-cyclic nucleotide 3′-phosphodiesterase (CNPase), catalytic domain; also called TOM70‐EGFP‐CNPase (catalytic domain); CNPase anchored to mitochondria; source: COS-7, co-transfected (pcDNA3.1, synthetic gene), in cells; not shown: TOM70 (anchor to the mitochondrial outer membrane), N-terminal, kept; EGFP, internal (between TOM70 and CNPase), kept
T1 chain: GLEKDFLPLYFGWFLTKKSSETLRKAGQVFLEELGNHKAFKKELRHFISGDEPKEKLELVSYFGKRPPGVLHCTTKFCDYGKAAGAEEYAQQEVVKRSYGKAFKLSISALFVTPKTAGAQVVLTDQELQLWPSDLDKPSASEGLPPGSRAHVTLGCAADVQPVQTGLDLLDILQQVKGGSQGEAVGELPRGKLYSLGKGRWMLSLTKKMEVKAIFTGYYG


Assays:
[1] = biological target: T2, mouse CNPase catalytic domain (mouse, UniProt P16330); assay: SEC-SAXS; Nb mixed with the CNPase catalytic domain in 1.3-fold molar excess; 20 mM HEPES, 150 mM NaCl, 0.5 mM TCEP, pH 7.5
T2 construct: 2′,3′-cyclic nucleotide 3′-phosphodiesterase (CNPase), mouse, catalytic (C-terminal phosphodiesterase) domain; As used in ITC, crystallisation and SEC-SAXS; also called mCNPase catalytic domain; C-terminal phosphodiesterase domain; source: E. coli Rosetta (DE3), pTH27 vector, autoinduction, purified (SEC)

[2] = biological target: T2, mouse CNPase catalytic domain; assay: ITC; 8.5–11 μM CNPase catalytic domain in the cell, 88–95 μM Nb in the syringe; 20 mM HEPES, 150 mM NaCl, 0.5 mM TCEP, pH 7.5; +25°C; 1:1 binding model; single experiments
[3] = biological target: T1, TOM70-EGFP-CNPase-ALFAtag; assay: recruitment to a mitochondria-anchored target (co-localisation by confocal microscopy); COS-7 cells co-transfected with TOM70-EGFP-CNPase and an iNb fused to mRuby3; fixed ca. 16 h after transfection; Pearson's correlation, N = 9 cells; conditions: partners not purified
full-length mouse CNPase [4] = biological target: T3, full-length mouse CNPase (Mus musculus (mouse), UniProt P16330); assay: nanoDSF thermal shift (Trp fluorescence); complex prepared by SEC, 2 mg/mL; 20 mM HEPES, 200 mM NaCl, 0.5 mM TCEP, pH 7.5; conditions: both partners purified
T3 construct: 2′,3′-cyclic nucleotide 3′-phosphodiesterase (CNPase), mouse, full-length; also called mCNPase; full-length mCNPase; source: E. coli Rosetta (DE3), pTH27 vector, autoinduction, purified (SEC)

full-length mouse CNPase [5] = biological target: T3, full-length mouse CNPase; assay: DSF thermal shift (SYPRO-Orange); full-length CNPase with Nb; 20 mM HEPES, 150 mM NaCl, 0.5 mM TCEP, pH 7.5; 20–95°C; N = 3; conditions: both partners purified
full-length mouse CNPase [6] = biological target: T3, full-length mouse CNPase; assay: enzyme inhibition kinetics (Dixon plot); apparent Ki; 2′,3′-cNADP+ hydrolysis by full-length mCNPase, coupled assay; 100 mM Bis-Tris pH 6.0, 10 mM MgCl2; +25°C; conditions: both partners purified

T3 sequence (P16330 whole entry): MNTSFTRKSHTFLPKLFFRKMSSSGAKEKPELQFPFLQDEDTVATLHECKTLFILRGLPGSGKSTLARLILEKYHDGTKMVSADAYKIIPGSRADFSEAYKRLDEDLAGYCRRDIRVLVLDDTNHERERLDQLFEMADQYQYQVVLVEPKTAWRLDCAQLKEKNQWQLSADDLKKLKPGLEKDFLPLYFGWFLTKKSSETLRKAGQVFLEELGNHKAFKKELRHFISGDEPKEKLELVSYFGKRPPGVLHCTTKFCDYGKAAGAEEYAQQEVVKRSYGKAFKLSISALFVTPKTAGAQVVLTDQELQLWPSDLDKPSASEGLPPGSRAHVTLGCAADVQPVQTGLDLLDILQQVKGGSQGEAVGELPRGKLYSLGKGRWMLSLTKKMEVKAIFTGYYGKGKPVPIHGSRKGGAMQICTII

Binder	stoichiometry N [1]	Kd [2]	dH [2]	stoichiometry N [2]	binding result [3]	Kd ([2]; both partners purified)	dH ([2]; both partners purified)	stoichiometry N ([2]; both partners purified)	∆Tm (full-length mouse CNPase [5])	further results
MaBP-8D (NbCNP 8D fusion with the intact His6-MaBP) (VHH) VHH: EVQLEESGGGLVQPGGSLRLSCAASGFTFSSYVMSWVRQAPGKGLEWVSDINSGGSRTYYTDSVKGRFTISRDNAKNTLYLQMNSLKPEDTAVYYCARDSLLSTRYLHTSERGQGTQVTVSS	1	0.2 nM	-45.9 kJ/mol	0.837						
anti-CNPase nanobody NbCNP 8D (VHH, this construct has a short, extended tail; The batch from the His14-bdSUMO system was used for structural work; also called Nb 8D; source: E. coli SHuffle Express, His14-bdSUMO fusion, purified (Ni2+ beads, eluted by bdSENP1 cleavage)) VHH: EVQLEESGGGLVQPGGSLRLSCAASGFTFSSYVMSWVRQAPGKGLEWVSDINSGGSRTYYTDSVKGRFTISRDNAKNTLYLQMNSLKPEDTAVYYCARDSLLSTRYLHTSERGQGTQVTVSS	1	2.5 nM	-46.1 kJ/mol	0.8					18 °C	∆Tm (full-length mouse CNPase [4]): 17.7 °C
iNbCNP 10E fused to mRuby3 (VHH, as the VHH of m9; also called NbCNP 10E-mRuby3; source: COS-7, co-transfected, in cells; not shown: mRuby3, C-terminal, kept) VHH: EVQLEESGGGLVQPGGSLRLSCAVSGITLDDFGIGWFRQAPGKEREGVACISPGYEHIYYADSAKGRFTISRDNAKNTVYLQMNNLKPWDTGVYYCAADNDLPDRLWGGSDWSDPSPYDYWGQGTQVTVSS					binds					
anti-CNPase nanobody NbCNP 8C (VHH, Extra disulphide between CDR2 and CDR3; source: E. coli Shuffle T7, His6-MaBP fusion (pHMGWA), purified (NiNTA, TEV, reverse NiNTA, SEC); not shown: His6, N-terminal, cleaved) VHH: EVQLEESGGGLVQAGGSLTLSCAASGFTFDDYAMGWYRQAPGKERVGVSCISRTDGYTYYLDSVKGRFTISTDHAKHTVYLQMNNLKPDDTGLYYCAADADPEYGSRCPDPYYGMDYWGKGILVTVSS						16.6 nM	-29.6 kJ/mol	0.914	9.2 °C	stoichiometry N ([1]; both partners purified): 1
anti-CNPase nanobody NbCNP 5E (VHH, Extra disulphide between CDR2 and CDR3; also called Nb5E; source: E. coli Shuffle T7, His6-MaBP fusion (pHMGWA), purified (NiNTA, TEV, reverse NiNTA, SEC); not shown: His6, N-terminal, cleaved) VHH: EVQLLESGGGSVQAGGSLRLSCAASGFTVGDYAIGWFRQAPGQQREAVACISTDDGDTYYADSVKGRFTISSDNAKKTAYLEMNNLKPEDTAVYHCAVDGWDSSCTFYSPSYYRDFSDHGAWGQGTQVTVSS	1	2.2 nM	-57.7 kJ/mol	0.82					17 °C	
iNbCNP 5E fused to mRuby3 (VHH, as the VHH of m5; also called NbCNP 5E-mRuby3; source: COS-7, co-transfected, in cells; not shown: mRuby3, C-terminal, kept) VHH: EVQLLESGGGSVQAGGSLRLSCAASGFTVGDYAIGWFRQAPGQQREAVACISTDDGDTYYADSVKGRFTISSDNAKKTAYLEMNNLKPEDTAVYHCAVDGWDSSCTFYSPSYYRDFSDHGAWGQGTQVTVSS					binds					
anti-CNPase nanobody NbCNP 7E (VHH, source: E. coli Shuffle T7, His6-MaBP fusion (pHMGWA), purified (NiNTA, TEV, reverse NiNTA, SEC); not shown: His6, N-terminal, cleaved) VHH: EVQLEESGGGWVHPGGSLRLSCAASGNVFGVNTMAWYRQAPGKQREQRELVASITDYGTTEYADSVKGRFTISGDNAKATVYLQMNSLKPEDTAVYYCNMDLTVMTATSSLYAYDYWGQGTQVTVSS						83.3 nM	-59.2 kJ/mol	0.863	2.1 °C	stoichiometry N ([1]; both partners purified): 1

Continued, in another order:

stoichiometry N [1]	Kd [2]	dH [2]	stoichiometry N [2]	binding result [3]	Kd ([2]; both partners purified)	dH ([2]; both partners purified)	stoichiometry N ([2]; both partners purified)	Binder	∆Tm (full-length mouse CNPase [5])	further results
				binds				iNbCNP 8D fused to mRuby3 (VHH, VHH of NbCNP 8D; also called NbCNP‐8D‐mRuby3; source: COS-7, co-transfected, in cells; not shown: mRuby3, C-terminal, kept) VHH: EVQLEESGGGLVQPGGSLRLSCAASGFTFSSYVMSWVRQAPGKGLEWVSDINSGGSRTYYTDSVKGRFTISRDNAKNTLYLQMNSLKPEDTAVYYCARDSLLSTRYLHTSERGQGTQVTVSS		
					9.8 nM	-50.6 kJ/mol	0.804	anti-CNPase nanobody NbCNP 10E (VHH, Purified as described for anti-Arc Nbs (Markusson et al., 2022); source: E. coli, pTH27 vector, purified (SEC, TEV, reverse NiNTA, SEC); not shown: His6, N-terminal, cleaved) VHH: EVQLEESGGGLVQPGGSLRLSCAVSGITLDDFGIGWFRQAPGKEREGVACISPGYEHIYYADSAKGRFTISRDNAKNTVYLQMNNLKPWDTGVYYCAADNDLPDRLWGGSDWSDPSPYDYWGQGTQVTVSS	4.2 °C	Ki (full-length mouse CNPase [6]): 0.604 nM
					13.4 nM	-75.6 kJ/mol	0.836	MaBP-10E (His6-maltose-binding protein fusion of NbCNP 10E) (VHH, as the VHH of m9; source: E. coli Shuffle T7, pHMGWA vector, purified; not shown: His6, N-terminal, kept) VHH: EVQLEESGGGLVQPGGSLRLSCAVSGITLDDFGIGWFRQAPGKEREGVACISPGYEHIYYADSAKGRFTISRDNAKNTVYLQMNNLKPWDTGVYYCAADNDLPDRLWGGSDWSDPSPYDYWGQGTQVTVSS		
